Laboratory results reported in patent publication US20230295316A1.

Molecular target: Nonhuman Primate CD123
Assay: SPR (Biacore T-100), univalent affinity; antibody captured on the CM4 chip, nonhuman primate CD123 ECD as analyte

Nonhuman Primate CD123, sequence (soluble extracellular domain with His and Avi tags, as listed by the source limits assumed, form in doubt): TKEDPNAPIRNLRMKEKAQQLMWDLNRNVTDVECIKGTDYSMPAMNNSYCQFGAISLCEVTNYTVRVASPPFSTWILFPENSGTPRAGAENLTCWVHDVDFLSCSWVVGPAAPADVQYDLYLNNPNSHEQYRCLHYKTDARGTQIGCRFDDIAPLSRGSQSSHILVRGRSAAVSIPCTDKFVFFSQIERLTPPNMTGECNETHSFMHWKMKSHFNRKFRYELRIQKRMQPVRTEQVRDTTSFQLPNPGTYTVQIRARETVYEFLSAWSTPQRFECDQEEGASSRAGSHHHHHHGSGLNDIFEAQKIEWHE

B1: 123-10C4 (murine anti-CD123 antibody, IgG2b isotype, Kappa Light Chain) (antibody, V domains shown)
VH: QVQLKESGPGLVAPSQNLSITCTVSGFSLTTYDINWIRQPPGKGLEWLGVIWTGGGTNYNSAFMSRLSISKDNSKSQVFLKMNSLQTDDTAMYYCVRGDTYHYALDFWGQGTSVTVSS
VL: DIVMSQSPSSLAVSAGEKVTMSCKSSQSLLSSGTRKNYLAWYQQKPGQSPKLLIYWASTRESGVPDRFTGSGSGTDFTLTISSVQAEDLAVYYCKQSYILFTFGSGTKLEIK
Kd: 16.1 nM | koff: 0.0023 s⁻¹ | kon: 143000 M⁻¹ s⁻¹
